Experimental data from US20220259306A1.

What was measured:
[1] = biological target: human NKG2A/CD94 on the cell surface (CHOk1-hNKG2A/CD94 stable cell line) (human) (UniProt P26715); experiment: FACS on CHOK1-hNKG2A/CD94 cells, Alexa 488 secondary antibody
[2] = biological target: human NKG2A/CD94 on the cell surface (CHOk1-hNKG2A/CD94 stable cell line) (human) (UniProt P26715); experiment: FACS blocking assay: HLA-E-PE binding to CHOk1-hNKG2A/CD94 cells in the presence of the antibody
[3] = biological target: human NKG2A/CD94 on the cell surface (CHOk1-hNKG2A/CD94 stable cell line) (human) (UniProt P26715); experiment: FACS on CHOK1-hNKG2A/CD94 cells

Row | EC50 (read off the curve) [1] [nM] | IC50 (read off the curve) [2] [nM] | EC50 (read off the curve) [3] [nM] | Binder
1 | 0.8 | 1 |  | Mab033 (antibody, V domains shown) VH: EVQLQQSVAEFVRPGASVRLSCTASGFNIENTYIHWLKQRPEQGLEWIGRIDPANGDTQYDPKFQGKATLTAATSSNTAYLQLSGLTSEDTAIYYCTRYGDYLFYYSLKYWGQGTSVTVSS VL: DIVMTQAAPSVSVTPGESVSISCRSSKSLLHSNGNTYLYWFLQRPGQSPQLLIYRMSNLASGVPDRFSGSGSGTAFTLRISRVEAEDVGVYYCMQHLESPYTFGGGTKLEIK
2 | 0.7 |  |  | Mpb416 (antibody, V domains shown) VH: QVQLQQSVAELVRPGASVKLSCTASGFNIQNTYIHWVKQRPEQGLEWIGKIDPANGDTKYAPTFQGKATITADTSSNTAYLQLSSLTPEDTAIYYCARYRDYLFYYALGYWGQGTSVTVSS VL: DIVMTQSAPSVPVTPGESVSISCRSSKSLLHSNGNTYLYWFLQRPGQSPQLLIYRMSNLASGVPDRFSGSGSGTAFTLRISRVEAEDVGVYYCMQHLEYPYTFGGGTKLEIK
3 | 0.8 | 1 |  | Mab032 (antibody, V domains shown) VH: EVQLQQSVAELVRPGASVRLSCTGSGFNIENTYMHWLKQRPEQGLEWIGRIDPADGDTQYAPKFQGKATITTDTSSNTAYLQLSSLTSEDTAIYYCARYGNYLFYYSMDYWGQGTSVTVSS VL: DIVMTQAAPSVPVTPGESVSISCRSSKSLLHSNGNTYLYWFLQRPGQSPQLLIYRMSNLASGVPDRFSGSGSATAFTLRISRVEAEDVGIYYCMQHLEYPYTFGGGTKLEIK

The remaining lines, values behind:

Row | Binder | EC50 (read off the curve) [1] [nM] | IC50 (read off the curve) [2] [nM] | EC50 (read off the curve) [3] [nM]
4 | M15 (antibody, V domains shown) VH: QVQLQQSVAELVRPGASVKLSCTASGFNIQNTYIHWVKQRPEQGLEWIGKIDPANADTKYAPTFQGKATITADTSSNTAYLQLSSLTPEDTAIYYCARYRDYLFYYALGYWGQGTSVTVSS VL: DIVMTQSAPSVPVTPGESVSISCRSSKSLLHSNANTYLYWFLQRPGQSPQLLIYRMSNLASGVPDRFSGSGSGTAFTLRISRVEAEDVGVYYCMQHLEYPYTFGGGTKLEIK |  |  | 0.8
5 | Mab031 (antibody, V domains shown) VH: EVQLQQSVAELVRPGASVRLSCTGSGFNIQNTYIHWVKQRPEQGLEWIGRIDPANGDTKYAPKFQGKATITADTSSNTAYLQLSSLTSEDTAIYYCTRYGNYLYYYSLDYWGQGTSVTVSS VL: DIVMTQAAPSVPVTPGESVSISCRSSKSLLHSNGNTYLYWFLQRPGQSPQLLIYRMSNLASGVPDRFSGSGSGTAFTLRISRVEAEDMGVYYCMQHLEYPYTFGGGTKLEIK | 0.8 | 1 | 
6 | M15-5 (antibody, V domains shown) VH: QVQLVQSGAEVKKPGASVKVSCKASGFNIQNTYIHWVKQAPGQGLEWIGKIDPANADTKYAPTFQGRATITADTSTNTAYLELSSLRSEDTAVYYCARYRDYLFYYALGYWGQGTTVTVSS VL: DIVMTQSPLSLPVTPGEPASISCRSSKSLLHSNANTYLYWYLQKPGQSPQLLIYRMSNLASGVPDRFSGSGSGTDFTLKISRVEAEDVGVYYCMQHLEYPYTFGQGTKLEIK |  |  | 1
